Test results taken from a protein production outcome set (Wang et al. 2014).

Test: label from the status in PepcDB records
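Further: failed if final PepcDB status was selected cloned or expressed and not failed if soluble or beyond.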

Sequence | protein production
MTSFEDADTEETVTCLQMTVYHPGQLQCGIFQSISFNREKLPSSEVVKFGRNSNICHYTFQDKQVSRVQFSLQLFKKFNSSVLSFEIKNMSKKTNLIVDSRELGYLNKMDLPYRCMVRFGEYQFLMEKEDGESLEFFETQFILSPRSLLQENNWPPHRPIPEYGTYSLCSSQSSSPTEMDENES | failed
MTSFLSFSAISAHPPTFSGASFRPRSFSPRLFKSCVKCTYAEAGLSSASWSAPIDIVADVKSERVVVLGGNGFVGSAICKAAISNGIEVVSVSRSGRPNFEDSWLDQVTWVTGDVFYLNWDEVLLGATAVVSTIGGFGNEEQMKRINGEANVTAVNAAKDFGVPKFVLITVHDYNLPPFILSNGYFTGKRNAEAELLSKYPTSGVVLRPGFIYGKRKVNGIEVPLDLVGEPLDKIYDSAERFIRPLRSLPASDLILAPPVNVDDLALAVINAVKDDDFFGIFTIEQIKEAAAKMRA | failed
MTSGGNSIEPSVVAEAEKMLFCYQYDQTITISITSSADPCPLCNGGFLDEYVDPNPNPIPNLILPMSDPISSRFSFIPVMDFTNPSFLGESMEPQSTQQQLNAFDPNQLSDQANPLAGNHGDYFFGRGLEDLI | failed
MTSHKPYWPIGVFTSVDAGLGVHLEVAQDLKVPTVQVHAPHPHTRTREHAQAFRAKCDAAGIQVTVIFGGFDGESYADIPTTARTVGLVPLETRASRVAEMKEISDFASWVGCPAIGLHIGFVPESSSPDYSELVRVTQDLLTHAANHGQAVHLETGQESADHLLEFIEDVNRPNLGINFDPANMILYGTGNPIEALRKVARYVRSIHCKDALWAPVNERGKSWGQEVALGTGDVGMEAYLTTLWEIGYRGPLTIEREIPHDPVQQKKDLASALELLTGLRKKIANC | not failed
MTSIHVQVPATTANIGAGFDCLGAALSLHNQFQFRLAGESEPFFSLELVGADVETQKLEATADNLLYRAFAKVFATLGQPVPHVNIAIDLKVPLSRGLGSSATAIVGGLVGANALAGSPLSQREIMNLAIEMEGHPDNVVPALLGGCQLSVKHQQDWVI | failed
MTSKKNSDVIYKSSSNILNEMRAGLIKGAGQDMERIKKRPLIAIANSHSELTTGHAHLAGLGAKVKQGIIAAGGEFAEFNVPAPCDGIAMAHDGMRYVLAQRDLIADIVETHVRSQAFDAVVFIAGCDKINPGMMMAMGRLDLPSLFLAGGPGQMNIRNTPTFNGNIDHGNYFNSPLEFKETFNCASCGACEFMGTANTFQCLAEALGICLPGSANIPAWHSDKLAAARATGEHIVHLFKEGITARQIMTKEAFNNALVMNMAIGGSTNAALHLPAIAHSAGIEMDIKAFETVDHIPTLLAISPNGPYGVQDLWAAGGMPAVMKVMQSDLDTSCLTVTGLPLQATIDNATILNPKVIPERSKPNRQEPGITVLRGNLAPEGCVIKQAGVKPELMYTSGPAICFDSEDDAINMIQDGKLKEGQVIVLRYMGPKGAPGMPEMLGATLALKVAGLSSASLITDGRFSGATSGPCVGHITPEASNGGFIAFIEDGDIITVDIKNRSIHCDVSDEEIEKRKQNWAPTIKPVAFGFMERYRKHVKTASEGAILD | failed
MTSLEEITKAIMADSQNKVFTEKNIEPLFAAPKTARINIVGQAPGIKAQESRLYWNDKSGDRLREWMGVDYDTFYHSGYFAVIPMDFYYPGKGKSGDLPPRKGFAQKWHQPILDLLPDIQLTILIGNYAQKYYLHQKSSVKLTDTVAHYKKYLPDYFPLVHPSPRNQIWMSRHPWFEAQVVPDLKKIIQQIIQSS | not failed
MTSLSQFEPLFLEFMQQEMQVDAAHDIEHVKRVVKTAKQLCDEENADIAIVLPAAYLHDCFTYPKDHPNRKQSSAIAAKKAIAYLESIQYPQHYHDAIAHAIEAHSFSANIRPNTLEAQIVQDADRLDALGAIGVTRCIQVSTHFNAQLYNDNDMFAKERELNDKQFTVDHFQTKLFKIADTMNTESAKLEANKRKAFMQTYLKQLHDEVTALEHHHHHH | not failed
MTSRSDAGVFHVRALLLGVLYVCGSLLFVTSMLSKTTTLTNVSSNTCPTVRGVDQIIVLLVDALRPDFVLPALSPHYLDGVECSTVSARGVDGNVNGDRRSTLTYMEENLKRVAHPSHGFFFLSDTPTITAQRIKAITTGTTPAFLEVGTNLNTDEVQIDNILLQLRRRSILLGDDTWLNLFPDHQGNASFWKHTHALPPYNVSDFDTNDATVIADLMPLLLSETAEQAPDDYARLIIGHLLAVDHVGHRHHASHPAMYKKLSDINEMLRNVTKRLREERQTSMRTLLVVFGDHGMTNSGDHGGDSEGERDSFMYAELFESSRDSVHAPVNSSDKFQRKNNLTEKRWEDNIDEDLSRLKACRDVAGVHPGKLSAVHQVDLTPTLALLLGVPIPFSNVGRVIPEMVALSNPDVNMSASEECNWKQLTSYFDEAGLYIKPEWKDSNLSLRRRIAQMSHFARSIRMEIRRDGAFIGSSLCMVTALSLLRNGDIQQVICGRSVLGIGTLFLLVLRLLAVFANSFIIKESVEVFCLLQLLLIAALFVAPTKGGGRHASFLIVILLVLLRVAVPLVSRERSHITHTAEATSHLEMWLAKQFPEFHYNSVGIILGAALFVFSAPTMPHRLMGIVLGTVAAVCYGQPLIHHIGPFVFFALTFFFRGMGPLRYTALVLWSSSLCNDNYVASASIAVSGVLLPVVLTATRHLPVVPQALMLHLYMWVSFFAQGNQCLLNTVDLNASFVGLPFNSVALGSVFVLSRLCNAFLFAPIAVMITYGTDRARGWRVCYLLLYITLAQSAVSSFNGYIQKSHLMFFPIFCPKFIFDFCIGMAACIGYALAALLA | failed
MTSRTRDTDTDRATDTDTDRATATLDHAMARSQGLDTLLRDLTDRAVVQVPGAVACSVTVRRADRLMTLAGSTGLPSGLDLRQYENGSGPCVDAAESGDAQYCADLAEETRWPAYTEYALATGVRCVLALPLPIEGETGAALNLYGLVPGSLVQGLDAARAFAERAADAVNEALRIERRQASAADVRTALLSRSVIDQAVGMLMARERIDAHRALERLRRASQDRNVKLRDLCAQVVARASGGASHRGQ | failed
MTSTPPTPGPKLLEERSLGGILIHFLAIPTGVVGAGLLYLLATDEFTKRNARNALDWHLTVLLITAVTFGSVFTYAELTGQGVTDVSIFPSSVSTVAGIVTSALLMLWFAVTAWTFAVGLIAMVKAIFGTAWRYPFSLALVERFGSHINLSDRWPLVILGYIVLSPLLIWAVFFVPANDAIVILSAFGLLGLILGLTPLTGIAMYRHGKEHWLQDADQQSHVFAHVGLPILVAAIGYVVSWSFTQSVSPQGDAMYVFLAAFWISSIVYLIRWWTTSSE | failed
MTSVSGCGSVSLITNRSAFLGNGLQHRAVFLKPWSSSSLQSRSMVVEAKTKTSSEDRIARHSRIRKKVNGTTERPRLCVFRSNKHLYVQVIDDTKMHTLASASTKQKPISEEFDYTSGPTIEVAKKVGEVIAKSCLEKGITKVAFDRGGYPYHGRIEALAAAAREHGLQF | failed
MTTATSERQKTLLFKAAERQWKEEFAGKETDIRKVDCNIYKGILYQLEIRQVFLDTSLSLKKLSALLETNQTYLSNVVNKYFGCNLKELVNTYRVEYAKELLCSRRCALTELPCSCGFASKSAFYSAFSRIVGVSPLSYQTQERRLEHHHHHH | not failed
MTTAYNHLCTAFTRLSRFEHLSAIAGWDMQTMMPAKGNLARSEAMAELNVLQHQILTAPQIGEWLKQAEQELLDEQSIDELKLANLREMHRHYHNAVLLPESLVEAKSLAGARCEHAWRQQRIANDWAGFAENLREVVKLSREEAKIRAEAAGTSGYDALLNLYEPGTNSADIDRIFGDLKQWLPALLQKVTTKQQSSEPCLIPQGPFDLEKQRQLGLSVMKVLGFDFNGGRVDVSVHPFCGGVPQDVRITTRYNNQEFLSALMGIVHETGHARYEQNLPREWLGQPIAHARSTAIHESQSLLFEMQLARSNEFLQVIHPLVIQQFGEQPAFAEHNFIALNQRVKTGLIRVDADEVSYPAHVILRYEIEKALIGGEIDVEDIPALWNEKMQQYLGINTEGDYRNGCMQDIHWTDGAFGYFPTYTLGAMYAAQLFHAARSAIPALDSHIANGNLAPLLNWLQQNIWQHGSRYPTAELITKATGEPLNPRYFRQHLERRYL | failed
MTTCGEFLVKQLEAWGVETVFGIPGVHTVELYRGLPGSRIRHVTPRHEQGAGFMADGYARVTGKPGVCFIITGPGMTNILTAMAQAYADSIPMLVISSVNERARLAHGNGYLHELPNQRNLVGNVCAFSHTLMSAEELPAVLARAFAVFDSERPRPVHIELPLDVITAPAEHLALRPRTVTSRPAPALAPLREAAARLRNAKKPLLLLGGGCVEAAAEARALAAALDAPTALTINAKGLLPADHPLLLGSNQSCVPVRELATEADVVLAIGTELGETDYDVVFDGGFALDGELIRIDIDPQQLMRNYTPSLAIHSDARLAMRVLLAELPGGEASPDSPGARRAAAVRQRLAEDFAGWSHYRQLFAAILAEWPDARFVGDSTQTVYSGNHLVDLDEPRRWFNASTGYGTLGYGLPAAIGAKLGEPGRPVVSLMGDGGLQFTLPELASAVEAKVGIVVLLWNNHGYGEIKRYMERREITPLGVDIYTPDFLAIARGFGCAAERARDLEHLRELLRGAPADRPLIVEVLQAAPFHP | failed
MTTEAPIWPAELFEDLDRNGPIPLYFQVAQRLEDGIRSGVLPPGARLENEISVAKHLNVSRPTVRRAIQEVVDKGLLVRRRGVGTQVVQSHVTRPVELTSFFNDLKNANLDPKTRVLEHRLLAASSAIAEKLGVSAGDEVLLIRRLRSTGDIPVAILENYLPPAFNDVSLDELEKGGLYDALRSRGVVLKIANQKIGARRAVGEESTLLDIEDGGPLLTVERVALDNSGQVIELGSHCYRPDMYNFETTLVAR | not failed
MTTETIQSNANLAPLPPHVPEHLVFDFDMYNPSNLSAGVQEAWAVLQESNVPDLVWTRCNGGHWIATRGQLIREAYEDYRHFSSECPFIPREAGEAYDFIPTSMDPPEQRQFRALANQVVGMPVVDKLENRIQELACSLIESLRPQGQCNFTEDYAEPFPIRIFMLLAGLPEEDIPHLKYLTDQMTRPDGSMTFAEAKEALYDYLIPIIEQRRQKPGTDAISIVANGQVNGRPITSDEAKRMCGLLLVGGLDTVVNFLSFSMEFLAKSPEHRQELIERPERIPAACEELLRRFSLVADGRILTSDYEFHGVQLKKGDQILLPQMLSGLDERENACPMHVDFSRQKVSHTTFGHGSHLCLGQHLARREIIVTLKEWLTRIPDFSIAPGAQIQHKSGIVSGVQALPLVWDPATTKAV | not failed
MTTFHADSSITRTFWRYAIPSIAAMVVSGLYQIIDGIFVGHYIGFEGLAGINMAWPAICILGAIGVMVGMGTGSVMSIYRGENKLEKTKVALTTGFWLLAILSIIAISCIVLLAKDILLAQGAEGQNFAYAMDYINVLMFGGFFTACATALPMLVRNDESPNVATFLLVIGALINIVLDYVFIGVMGLGLSGAALATLMAQACVTVLGIGYFFTQRSSIQITLQEVLFSWNKAKQSLSLGASALVMYLYGSFVVAMHNALMMYYGSATTVGAYAIVGYLFMLYYLLAQGIAEGAQPPISYYFGARENKKVYQIFKIALKWVIITGIGWVTILNISPELTTALFTNGDKALIAETIVGIRYHLFAMFLDGMIVLITIYFLSVNEGKKAMVISISNIVIQLPFLLILPKWFGIDGVWLAMPVSNIALIICIAPMVWNHLKTQKIIKPLPLTSTSVMSH | failed
MTTGVRRRMGVEERRQQLIGVALDLFSRRSPDEVSIDEIASAAGISRPLVYHYFPGKLSLYEAALQRASDDLADRFVEPRQGPLGARLLRVMGRYFDFVDEHGPGFSALMRGGPAVGSTTTNALVDSVRQAAYVQILSHLDVTEPPARLELVVRSWISLAESTALLWLDGRRIPRAELETQLVHDFAALMAVSAAYDEEMGALVRRVLADEPEDGPFGDLVDRLLALSAR | not failed
MTTIAILSDIHGNMTAFSAVIQDAKAHQADEYWFLGDLFLPGPGSDKLWATLHGLKPTHIVKGNWDDDLFWVLDGPVDLSQPTDVYFSRLVAYLWPHLTAENLATIRNWPLHEVFEQDGLIVSLAHNLPDKNHGHALYPDQPQLNFDQIAPDSQIDLAVYGHTHQQLLRYTSNGQVILNPGSIGQAYSPRPHLQTTTYADYALLQLNDGAITDLDLRQVPYDVSAELSLAKQQQLPYPEVYTKLRHTGATSTHNAAYLKQFEQRHDYQQEVAEFLHKYRHQHLEHHHHHH | failed
